Experimental data: paper PMC12673129, “A GPER-PKA-Centrin axis regulates centrosome numbers and centriole integrity in colon cancer cells” (Communications Biology, 2025)

Molecular target: catalytic subunit α of PKA (PKA-Cα) (human (endogenous in HCT116 and HCT-15), UniProt P17612 1-351)
Experiment: co-IP; immunoprecipitation with anti-PKA Cα (4782, Cell Signaling) and protein-G Sepharose from 2 mg HCT116 lysate, 2 h at 4 °C, IP lysis buffer (50 mM tris/HCl pH 7.4, 150 mM NaCl, 0,25% NP-40); cells mitotically arrested (2 µM dimethylenastron, 16 h) or asynchronous with DMSO, E2, BPA, DES or G-1 for 48 h; Western blot, Centrin-pS170 band normalised to precipitated PKA Cα
Details: partners not purified

B1: Centrin-2 phosphorylated at serine 170 (Centrin-2-pS170) (natural protein, human (endogenous in HCT116 and HCT-15), UniProt P41208 1-172, looked up)
chain: MASNFKKANMASSSQRKRMSPKPELTEEQKQEIREAFDLFDADGTGTIDVKELKVAMRALGFEPKKEEIKKMISEIDKEGTGKMNFGDFLTVMTQKMSEKDTKEEILKAFKLFDDDETGKISFKNLKRVAKELGENLTDEELQEMIDEADRDGDGEVSEQEFLRIMKKTSLY
modifications: phosphoserine at 170
notes: Centrin-2, human, endogenous, the form phosphorylated at S170 as detected by the anti-Centrin-2-pS170 antibody (raised against Cys-LRIMKKT(pS)LY172); NM_004344.3 is printed for the Centrin wild-type expression vector, not for the endogenous protein of the co-IP; also called Centrin-pS170; phosphorylated Centrin-2; source: endogenous, HCT116 and HCT-15 lysates
fold increase of co-precipitated Centrin-pS170 (normalised to PKA-Cα) with BPA, relative to DMSO: 1.8 fold
fold increase of co-precipitated Centrin-pS170 (normalised to PKA-Cα) with DES, relative to DMSO: 1.6 fold
fold increase of co-precipitated Centrin-pS170 (normalised to PKA-Cα) with E2, relative to DMSO: 1.4 fold
